In patent US20070049521A1 one finds cGMP levels of NPR-C-expressing HEK293 cells with 0.1 nM ANP and 10 nM rhOstn[27-133], IC50 and maximal inhibition data, which are given here for two substances.

The target of assay [1] is human NPR-C (natriuretic peptide receptor C, clearance receptor), overexpressed on HEK293 cells (human) (UniProt P17342). As to the kind of experiment: cell-based or functional assay.
In assay [2] the target is NPR-C on ATDC5 cells (mouse chondrogenic cell line) (mouse) (UniProt P70180). As to the kind of experiment: displacement of 125I-Ostn[83-133] from ATDC5 cells.
Sequence of NPR-C on ATDC5 cells (mouse chondrogenic cell line) (mouse) (P70180 41-536): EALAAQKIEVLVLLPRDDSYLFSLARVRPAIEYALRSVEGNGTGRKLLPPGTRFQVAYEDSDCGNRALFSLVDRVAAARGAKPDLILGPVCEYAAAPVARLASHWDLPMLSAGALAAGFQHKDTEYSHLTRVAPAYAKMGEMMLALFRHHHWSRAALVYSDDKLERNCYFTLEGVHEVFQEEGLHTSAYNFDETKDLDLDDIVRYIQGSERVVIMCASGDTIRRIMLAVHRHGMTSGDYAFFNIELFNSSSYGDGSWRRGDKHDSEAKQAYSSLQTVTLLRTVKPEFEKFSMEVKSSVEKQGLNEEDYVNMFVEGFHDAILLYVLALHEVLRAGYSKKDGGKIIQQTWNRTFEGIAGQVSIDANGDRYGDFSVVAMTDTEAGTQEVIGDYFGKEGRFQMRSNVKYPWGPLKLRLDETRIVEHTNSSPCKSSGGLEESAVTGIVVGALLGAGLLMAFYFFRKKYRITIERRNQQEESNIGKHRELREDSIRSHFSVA

Sequence of human NPR-C (natriuretic peptide receptor C, clearance receptor), overexpressed on HEK293 cells (human) (P17342 27-541): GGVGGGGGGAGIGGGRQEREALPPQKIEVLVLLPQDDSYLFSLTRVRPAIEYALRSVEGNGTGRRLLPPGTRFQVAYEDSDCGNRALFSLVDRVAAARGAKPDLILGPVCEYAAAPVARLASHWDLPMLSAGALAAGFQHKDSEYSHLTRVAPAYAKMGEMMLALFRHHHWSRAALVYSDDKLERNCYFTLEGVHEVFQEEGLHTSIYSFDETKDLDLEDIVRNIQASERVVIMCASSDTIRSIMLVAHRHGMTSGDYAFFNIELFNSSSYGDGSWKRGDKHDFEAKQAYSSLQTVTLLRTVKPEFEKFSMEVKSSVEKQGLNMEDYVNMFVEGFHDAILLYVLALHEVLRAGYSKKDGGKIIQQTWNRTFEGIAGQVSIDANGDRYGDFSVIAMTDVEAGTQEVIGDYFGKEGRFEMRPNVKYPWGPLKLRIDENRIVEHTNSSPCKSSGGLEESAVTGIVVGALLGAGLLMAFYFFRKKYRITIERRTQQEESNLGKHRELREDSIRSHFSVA

In assay [1], “N-terminal 6 histidine-tagged recombinant human Ostn rhOstn[27-133] (from UniProt G7NYP9 27-133) (ligand)” returned a cGMP levels of NPR-C-expressing HEK293 cells with 0.1 nM ANP and 10 nM rhOstn[27-133] of 8 fold.
As a reminder, the IC50 is the concentration that gives 50% inhibition. High values mean a need for much substance, low ones inhibition by little substance. Regarding rat C-ANF (peptide), in assay [2], the IC50 is 6.7 nM and the maximal inhibition at 1 µM, difference from that of cold Ostn[83-133] stood at 15 % less.
